# Results as given in patent US20230203469A1.
# B1: Q97R ADAMTS13 variant (protein)
# chain: AAGGILHLELLVAVGPDVFQAHREDTERYVLTNLNIGAELLRDPSLGAQFRVHLVKMVILTEPEGAPNITANLTSSLLSVCGWSQTINPEDDTDPGHADLVLYITRFDLELPDGNRQVRGVTQLGGACSPTWSCLITEDTGFDLGVTIAHEIGHSFGLEHDGAPGSGCGPSGHVMASDGAAPRAGLAWSPCSRRQLLSLLSAGRARCVWDPPRPQPGSAGHPPDAQPGLYYSANEQCRVAFGPKAVACTFAREHLDMCQALSCHTDPLDQSSCSRLLVPLLDGTECGVEKWCSKGRCRSLVELTPIAAVHGRWSSWGPRSPCSRSCGGGVVTRRRQCNNPRPAFGGRACVGADLQAEMCNTQACEKTQLEFMSQQCARTDGQPLRSSPGGASFYHWGAAVPHSQGDALCRHMCRAIGESFIMKRGDSFLDGTRCMPSGPREDGTLSLCVSGSCRTFGCDGRMDSQQVWDRCQVCGGDNSTCSPRKGSFTAGRAREYVTFLTVTPNLTSVYIANHRPLFTHLAVRIGGRYVVAGKMSISPNTTYPSLLEDGRVEYRVALTEDRLPRLEEIRIWGPLQEDADIQVYRRYGEEYGNLTRPDITFTYFQPKPRQAWVWAAVRGPCSVSCGAGLRWVNYSCLDQARKELVETVQCQGSQQPPAWPEACVLEPCPPYWAVGDFGPCSASCGGGLRERPVRCVEAQGSLLKTLPPARCRAGAQQPAVALETCNPQPCPARWEVSEPSSCTSAGGAGLALENETCVPGADGLEAPVTEGPGSVDEKLPAPEPCVGMSCPPGWGHLDATSAGEKAPSPWGSIRTGAQAAHVWTPAAGSCSVSCGRGLMELRFLCMDSALRVPVQEELCGLASKPGSRREVCQAVPCPARWQYKLAACSVSCGRGVVRRILYCARAHGEDDGEEILLDTQCQGLPRPEPQEACSLEPCPPRWKVMSLGPCSASCGLGTARRSVACVQLDQGQDVEVDEAACAALVRPEASVPCLIADCTYRWHVGTWMECSVSCGDGIQRRRDTCLGPQAQAPVPADFCQHLPKPVTVRGCWAGPCVGQGTPSLVPHEEAAAPGRTTATPAGASLEWSQARGLLFSPAPQPRRLLPGPQENSVQSSACGRQHLEPTGTIDMRGPGQADCAVAIGRPLGEVVTLRVLESSLNCSAGDMLLLWGRLTWRKMCRKLLDMTFSSKTNTLVVRQRCGRPGGGVLLRYGSQLAPETFYRECDMQLFGPWGEIVSPSLSPATSNAGGCRLFINVAPHARIAIHALATNMGAGTEGANASYILIRDTHSLRTTAFHGQQVLYWESESSQAEMEFSEGFLKAQASLRGQYWTLQSWVPEMQDPQSWKGKEGT
# How the values were obtained:
# [1] = target: recombinant VWF (full-length, multimeric rVWF) (UniProt P04275); assay: cell-based or functional assay
# [2] = target: von Willebrand factor (VWF), substrate of the in vitro cleavage of Table 1 (UniProt P04275); assay: cell-based or functional assay
# [3] = target: FRETS-VWF73 substrate (UniProt P04275); assay: cell-based or functional assay
# [4] = target: T1, FRETS-VWF73 substrate, P04275
# T1 chain: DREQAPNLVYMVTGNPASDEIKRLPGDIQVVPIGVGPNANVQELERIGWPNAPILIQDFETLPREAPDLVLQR
# [5] = target: recombinant VWF (full-length, multimeric rVWF), P04275
molecule,measurement,setting,value
rADAMTS13 batches composed of a mixture of wildtype rADAMTS13 and Q97R variant,"cleavage of multimeric rVWF [%]; Sample 1, 59 % Q97R",[1],58%
same,"cleavage of multimeric rVWF [%]; Sample 2, 64 % Q97R",[1],52%
same,"cleavage of multimeric rVWF [%]; Sample 3, 59 % Q97R",[1],51%
same,"cleavage of multimeric rVWF [%]; Sample 4, 56 % Q97R",[1],60%
same,"cleavage of multimeric rVWF [%]; Sample 5, 55 % Q97R",[1],52%
same,"cleavage of multimeric rVWF [%]; Sample 6, 64 % Q97R",[1],57%
same,"cleavage of multimeric rVWF [%]; Sample 7, 66 % Q97R",[1],62%
same,"cleavage of multimeric rVWF [%]; Sample 9, 67 % Q97R",[1],62%
same,"cleavage of multimeric rVWF [%]; Sample 10, 67 % Q97R",[1],60%
same,"cleavage of multimeric rVWF [%]; Sample 11, 60 % Q97R",[1],61%
same,"cleavage of multimeric rVWF [%]; Sample 12, 60 % Q97R",[1],59%
same,"cleavage of multimeric rVWF [%]; Sample 13, 71 % Q97R",[1],60%
same,"cleavage of multimeric rVWF [%]; Sample 14, 59 % Q97R",[1],55%
same,"cleavage of multimeric rVWF [%]; Sample 15, 52 % Q97R",[1],59%
same,"cleavage of multimeric rVWF [%]; Sample 16, 57 % Q97R",[1],66%
same,"cleavage of multimeric rVWF [%]; Sample 17, 61 % Q97R",[1],58%
same,"cleavage of multimeric rVWF [%]; Sample 18, 63 % Q97R",[1],55%
same,"cleavage of multimeric rVWF [%]; Sample 19, 54 % Q97R",[1],78%
same,"cleavage of multimeric rVWF [%]; Sample 20, 64 % Q97R",[1],78%
same,"cleavage of multimeric rVWF [%]; Sample 21, 64 % Q97R",[1],75%
same,"cleavage of multimeric rVWF [%]; Sample 22, 66 % Q97R",[1],65%
same,"cleavage of multimeric rVWF [%]; Sample 23, 61 % Q97R",[1],66%
same,"cleavage of multimeric rVWF [%]; Sample 24, 62 % Q97R",[1],63%
same,"cleavage of multimeric rVWF [%]; Sample 25, 61 % Q97R",[1],63%
same,"cleavage of multimeric rVWF [%]; Sample 26, 61 % Q97R",[1],67%
same,"cleavage of multimeric rVWF [%]; Sample 27, 59 % Q97R",[1],67%
same,"cleavage of multimeric rVWF [%]; Sample 28, 60 % Q97R",[1],67%
same,"cleavage of multimeric rVWF [%]; Sample 29, 55 % Q97R",[1],68%
same,"cleavage of multimeric rVWF [%]; Sample 30, 60 % Q97R",[1],67%
same,"cleavage of multimeric rVWF [%]; Sample 31, 64 % Q97R",[1],71%
same,"cleavage of multimeric rVWF [%]; Sample 32, 60 % Q97R",[1],62%
same,"cleavage of multimeric rVWF [%]; Sample 33, 65 % Q97R",[1],78%
same,"cleavage of multimeric rVWF [%]; Sample 34, 61 % Q97R",[1],65%
same,"cleavage of multimeric rVWF [%]; Sample 35, 72 % Q97R",[1],66%
same,"IU VWF RCo/ml left; ADAMTS13 0.1 U/ml, 0 h (IU VWF RCo/ml)",[2],0.72
same,"IU VWF RCo/ml left; ADAMTS13 0.1 U/ml, 15 seconds (IU VWF RCo/ml)",[2],0.33
same,"IU VWF RCo/ml left; ADAMTS13 0.1 U/ml, 30 seconds (IU VWF RCo/ml)",[2],0.34
same,"IU VWF RCo/ml left; ADAMTS13 0.1 U/ml, 1 minute (IU VWF RCo/ml)",[2],0.3
same,"IU VWF RCo/ml left; ADAMTS13 0.1 U/ml, 2 minutes (IU VWF RCo/ml)",[2],0.24
same,"IU VWF RCo/ml left; ADAMTS13 0.1 U/ml, 5 minutes (IU VWF RCo/ml)",[2],< 0.17
same,"IU VWF RCo/ml left; ADAMTS13 0.5 U/ml, 0 h (IU VWF RCo/ml)",[2],0.78
same,"IU VWF RCo/ml left; ADAMTS13 0.5 U/ml, 15 seconds (IU VWF RCo/ml)",[2],< 0.17
same,"IU VWF RCo/ml left; ADAMTS13 0.5 U/ml, 30 seconds (IU VWF RCo/ml)",[2],< 0.17
same,"IU VWF RCo/ml left; ADAMTS13 0.5 U/ml, 1 minute (IU VWF RCo/ml)",[2],< 0.17
same,"IU VWF RCo/ml left; ADAMTS13 0.5 U/ml, 2 minutes (IU VWF RCo/ml)",[2],< 0.17
same,"IU VWF RCo/ml left; ADAMTS13 0.5 U/ml, 5 minutes (IU VWF RCo/ml)",[2],< 0.17
same,"IU VWF RCo/ml left; ADAMTS13 1.0 U/ml, 0 h (IU VWF RCo/ml)",[2],0.56
same,"IU VWF RCo/ml left; ADAMTS13 1.0 U/ml, 15 seconds (IU VWF RCo/ml)",[2],< 0.17
same,"IU VWF RCo/ml left; ADAMTS13 1.0 U/ml, 30 seconds (IU VWF RCo/ml)",[2],< 0.17
same,"IU VWF RCo/ml left; ADAMTS13 1.0 U/ml, 1 minute (IU VWF RCo/ml)",[2],< 0.17
same,"IU VWF RCo/ml left; ADAMTS13 1.0 U/ml, 2 minutes (IU VWF RCo/ml)",[2],< 0.17
same,"IU VWF RCo/ml left; ADAMTS13 1.0 U/ml, 5 minutes (IU VWF RCo/ml)",[2],< 0.17
same,"specific activity U/mg (UV); Sample 1, 59 % Q97R",[3],1640 U/mg (UV)
same,"specific activity U/mg (UV); Sample 2, 64 % Q97R",[3],1580 U/mg (UV)
same,"specific activity U/mg (UV); Sample 3, 59 % Q97R",[3],1400 U/mg (UV)
same,"specific activity U/mg (UV); Sample 4, 56 % Q97R",[3],1460 U/mg (UV)
same,"specific activity U/mg (UV); Sample 5, 55 % Q97R",[3],1360 U/mg (UV)
same,"specific activity U/mg (UV); Sample 6, 64 % Q97R",[3],1470 U/mg (UV)
same,"specific activity U/mg (UV); Sample 7, 66 % Q97R",[3],2040 U/mg (UV)
same,"specific activity U/mg (UV); Sample 8, 70 % Q97R",[3],1610 U/mg (UV)
same,"specific activity U/mg (UV); Sample 9, 67 % Q97R",[3],1480 U/mg (UV)
same,"specific activity U/mg (UV); Sample 10, 67 % Q97R",[3],1450 U/mg (UV)
same,"specific activity U/mg (UV); Sample 11, 60 % Q97R",[3],1580 U/mg (UV)
same,"specific activity U/mg (UV); Sample 12, 60 % Q97R",[3],1620 U/mg (UV)
same,"specific activity U/mg (UV); Sample 13, 71 % Q97R",[3],1970 U/mg (UV)
same,"specific activity U/mg (UV); Sample 14, 59 % Q97R",[3],1390 U/mg (UV)
same,"specific activity U/mg (UV); Sample 15, 52 % Q97R",[3],1330 U/mg (UV)
same,"specific activity U/mg (UV); Sample 16, 57 % Q97R",[3],1410 U/mg (UV)
same,"specific activity U/mg (UV); Sample 17, 61 % Q97R",[3],1380 U/mg (UV)
same,"specific activity U/mg (UV); Sample 18, 63 % Q97R",[3],1440 U/mg (UV)
same,"specific activity U/mg (UV); Sample 19, 54 % Q97R",[3],1660 U/mg (UV)
same,"specific activity U/mg (UV); Sample 20, 64 % Q97R",[3],1700 U/mg (UV)
same,"specific activity U/mg (UV); Sample 21, 64 % Q97R",[3],1690 U/mg (UV)
same,"specific activity U/mg (UV); Sample 22, 66 % Q97R",[3],1620 U/mg (UV)
same,"specific activity U/mg (UV); Sample 23, 61 % Q97R",[3],1540 U/mg (UV)
same,"specific activity U/mg (UV); Sample 24, 62 % Q97R",[3],1510 U/mg (UV)
same,"specific activity U/mg (UV); Sample 25, 61 % Q97R",[3],1530 U/mg (UV)
same,"specific activity U/mg (UV); Sample 26, 61 % Q97R",[3],1760 U/mg (UV)
same,"specific activity U/mg (UV); Sample 27, 59 % Q97R",[3],1860 U/mg (UV)
same,"specific activity U/mg (UV); Sample 28, 60 % Q97R",[3],1750 U/mg (UV)
same,"specific activity U/mg (UV); Sample 29, 55 % Q97R",[3],1730 U/mg (UV)
same,"specific activity U/mg (UV); Sample 30, 60 % Q97R",[3],1850 U/mg (UV)
same,"specific activity U/mg (UV); Sample 31, 64 % Q97R",[3],1800 U/mg (UV)
same,"specific activity U/mg (UV); Sample 32, 60 % Q97R",[3],1750 U/mg (UV)
same,"specific activity U/mg (UV); Sample 33, 65 % Q97R",[3],1620 U/mg (UV)
same,"specific activity U/mg (UV); Sample 34, 61 % Q97R",[3],1720 U/mg (UV)
same,"specific activity U/mg (UV); Sample 35, 72 % Q97R",[3],1650 U/mg (UV)
B1,Specific rADAMTS13 activity (activity per total protein by UV),[4],1740 IU/mg
same,rADAMTS13 Activity (FRETS VWF73),[4],1370 IU/mL
same,"specific activity (FRETS U/mg UV protein) against share of Q97R, regression",[4],suggesting that the Q^97R rADAMTS13 variant has similar activity to that of wildtype ADAMTS13
same,Degradation of full-length rVWF under denaturing conditions (VWF multimer analysis),[5],Comparable
